Laboratory results published in publication PMC7043065 (Cell reports, 2020).

Biological target: C-X-C motif chemokine 12 (CXCL12) (mouse (endogenous in BM-MSC of C57BL/6 …, UniProt P40224 22-93))
Assay: cross-linking + co-IP

C-X-C motif chemokine 12 (CXCL12) (mouse, sequence (P40224 22-93): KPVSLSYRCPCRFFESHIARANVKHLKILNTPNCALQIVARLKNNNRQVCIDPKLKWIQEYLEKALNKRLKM

molar interaction ratio of CXCL12/CCL2: > 1
B1: chemokine ligand 2 (CCL2) (natural protein)
chain: not shown
